Data: US20180371091A1 (JOUNCE THERAPEUTICS, published 2018)

Legend:
[1] = biological target: T1, monovalent, heterodimeric human ICOS-Fc (human); assay: BLI (Octet RED96), monovalent, monomeric ICOS; mean ± SEM of 6 experiments
T1 construct: Make-up of the heterodimer is not described; also called Monomeric hICOS; monomeric form of human ICOS; not shown: The human IgG1 Fc fused to ICOS, and the partner Fc chain of the heterodimer
T1 chain: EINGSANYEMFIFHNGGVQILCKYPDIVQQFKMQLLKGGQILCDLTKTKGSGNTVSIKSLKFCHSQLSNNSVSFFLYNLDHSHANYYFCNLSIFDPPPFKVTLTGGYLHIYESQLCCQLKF
Description: (§1) The affinity of a humanized antibody having the variable regions of 37A10S713 for monomeric forms of ICOS from human, cynomolgus monkey and rat was measured by Bio-Layer Interferometry (BLI) technology (ForteBio Octet® RED96) and KD's are shown in Table 5. […] Functionality of binding was confirmed by assessing potency of inducing proliferation of primary CD4+ T cells isolated from each species.

[2] = biological target: T2, monomeric form of cynomolgus monkey ICOS (cynomolgus monkey, UniProt Q9Y6W8 21-140 (human entry), limits assumed); assay: as above
T2 chain: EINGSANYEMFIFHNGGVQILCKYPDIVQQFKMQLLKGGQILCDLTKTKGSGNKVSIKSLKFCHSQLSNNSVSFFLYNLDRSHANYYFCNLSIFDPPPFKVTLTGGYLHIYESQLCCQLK
Description: as §1

[3] = biological target: T3, monomeric form of rat ICOS (rat, UniProt Q9R1T7 21-145, limits assumed); assay: as above
T3 sequence: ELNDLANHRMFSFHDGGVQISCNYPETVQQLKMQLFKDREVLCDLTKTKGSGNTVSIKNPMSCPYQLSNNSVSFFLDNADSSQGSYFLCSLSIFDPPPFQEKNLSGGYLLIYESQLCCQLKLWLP
Description: as §1

[4] = biological target: T4, human ICOS (full length, on cells) (human, UniProt Q9Y6W8 21-199); assay: cell-based ELISA on fixed, permeabilised CHO cells expressing human ICOS, chemiluminescence (RLU)
T4 construct: also called CHO-hICOS; human ICOS+ CHO cells
T4 sequence: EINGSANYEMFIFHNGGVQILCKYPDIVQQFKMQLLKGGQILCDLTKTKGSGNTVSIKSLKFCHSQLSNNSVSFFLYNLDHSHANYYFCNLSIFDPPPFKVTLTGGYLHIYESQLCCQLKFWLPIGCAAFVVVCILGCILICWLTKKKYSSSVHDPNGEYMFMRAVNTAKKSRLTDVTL
Description: Chinese Hamster ovary (CHO) cells stably transfected with ICOS overexpressing plasmid (CHO-ICOS) or control plasmid (CHO-vector) were used to screen positive clones from the peptide ELISA assay using established protocols. Briefly, cells grown in 96 well plates were fixed and permeabilized using 10% formalin with 0.1% Triton X-100. Following blocking, cells were incubated with primary antibody, followed by HRP-conjugated anti-mouse antibody. Detection was carried out using chemiluminescence substrate. Commercial anti-ICOS antibody, SP98 (Spring Biosciences) was used as a positive control and mouse IgG1 was used as a negative control for the assay.

[5] = biological target: T5, mouse ICOS (full length, on cells) (mouse, UniProt Q9WVS0 21-200); assay: flow cytometry on ICOS+ CHO cells
T5 construct: also called CHO-mICOS; mouse ICOS+ CHO cells
T5 sequence: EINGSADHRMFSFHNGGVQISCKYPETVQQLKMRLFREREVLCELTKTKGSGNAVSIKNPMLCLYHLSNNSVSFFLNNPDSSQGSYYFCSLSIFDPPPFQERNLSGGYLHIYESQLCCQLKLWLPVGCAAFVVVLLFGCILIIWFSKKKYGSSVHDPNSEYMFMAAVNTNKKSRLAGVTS
Text: To assess specificity, binding to human ICOS+ CHO cells and mouse ICOS+ CHO cells was individually analyzed by flow cytometry. As a control to screen out pan-reactive antibodies, staining on CHO cells lacking ICOS receptor expression was also examined. All of the selected antibodies bound to human and mouse ICOS+ CHO cells, and not to CHO cells lacking ICOS expression.

[6] = biological target: T6, human BTLA Fc fusion (dimeric) (human, UniProt Q7Z6A9 31-157); assay: binding to dimeric Fc fusions of CD28 family members
T6 construct: not shown: Fc part not described
T6 sequence (looked up): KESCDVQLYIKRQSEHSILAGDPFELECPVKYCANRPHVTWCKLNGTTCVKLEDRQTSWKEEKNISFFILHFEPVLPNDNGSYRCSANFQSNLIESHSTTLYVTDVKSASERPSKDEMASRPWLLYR
Description: (§2) To further assess the specificity of the anti-ICOS antibodies, the antibodies were screened for binding to additional members of the CD28 protein family (CD28, BTLA, PD-1 and CTLA-4). […] Specifically, binding to Fc fusions (of CD28, BTLA, PD-1 and CTLA-4) in dimeric forms was evaluated, and no binding was observed. For a subset of the CD28 family members, mouse or human protein was over-expressed on the surface of HEK293 and CHOK1 cells. No binding of antibody above background relative to untransduced parental cells was observed.

[7] = biological target: T7, human CTLA-4 Fc fusion (dimeric) (human, UniProt P16410 37-162); assay: as above
T7 construct: not shown: Fc part not described
T7 sequence (looked up): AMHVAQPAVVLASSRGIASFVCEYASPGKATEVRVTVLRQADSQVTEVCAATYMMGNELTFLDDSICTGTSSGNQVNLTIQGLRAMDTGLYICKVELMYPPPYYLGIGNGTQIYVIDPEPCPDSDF
Description: as §2

[8] = biological target: T8, mouse PD-1 Fc fusion (dimeric) (mouse, UniProt Q02242 25-167); assay: as above
T8 construct: not shown: Fc part not described
T8 sequence (looked up): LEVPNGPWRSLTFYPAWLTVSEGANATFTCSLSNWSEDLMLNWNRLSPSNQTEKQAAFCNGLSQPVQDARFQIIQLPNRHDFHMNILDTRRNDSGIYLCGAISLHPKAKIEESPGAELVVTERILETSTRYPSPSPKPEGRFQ
Description: as §2

[9] = biological target: T9, human CD28 Fc fusion (dimeric) (human, UniProt P10747 19-152); assay: as above
T9 construct: not shown: Fc part not described
T9 sequence (P10747 19-152): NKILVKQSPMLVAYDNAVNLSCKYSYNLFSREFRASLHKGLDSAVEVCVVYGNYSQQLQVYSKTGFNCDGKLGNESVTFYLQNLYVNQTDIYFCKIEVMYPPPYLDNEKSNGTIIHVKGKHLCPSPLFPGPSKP
Description: as §2

[10] = biological target: T10, mouse BTLA Fc fusion (dimeric) (mouse, UniProt Q7TSA3 30-183); assay: as above
T10 construct: not shown: Fc part not described
T10 sequence (looked up): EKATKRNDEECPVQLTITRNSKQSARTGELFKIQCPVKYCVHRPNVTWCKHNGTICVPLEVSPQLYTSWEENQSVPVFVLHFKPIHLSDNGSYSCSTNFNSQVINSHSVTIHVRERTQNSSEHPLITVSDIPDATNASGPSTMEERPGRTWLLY
Description: as §2

[11] = biological target: T11, mouse CD28 Fc fusion (dimeric) (mouse, UniProt P31041 20-150); assay: as above
T11 construct: not shown: Fc part not described
T11 sequence (looked up): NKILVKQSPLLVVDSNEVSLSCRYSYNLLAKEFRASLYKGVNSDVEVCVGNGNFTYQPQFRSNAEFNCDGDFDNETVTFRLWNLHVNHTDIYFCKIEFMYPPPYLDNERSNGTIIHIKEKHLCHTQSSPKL
Description: as §2

[12] = biological target: T12, mouse CTLA-4 Fc fusion (dimeric) (mouse, UniProt P09793 36-162); assay: as above
T12 construct: not shown: Fc part not described
Description: as §2

[13] = biological target: T13, human PD-1 Fc fusion (dimeric) (human, UniProt Q15116 25-167); assay: as above
T13 construct: not shown: Fc part not described
T13 sequence (Q15116 25-167): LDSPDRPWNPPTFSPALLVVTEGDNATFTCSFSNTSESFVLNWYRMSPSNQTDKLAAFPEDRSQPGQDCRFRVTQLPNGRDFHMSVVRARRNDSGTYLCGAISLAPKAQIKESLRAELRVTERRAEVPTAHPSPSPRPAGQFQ
Description: as §2

[14] = biological target: T14, mouse ICOS-hFc (homodimeric, bivalent) (mouse; human, UniProt Q9WVS0 21-142); assay: BLI
T14 construct: also called mICOS-hFc; mouse ICOS-Fc; not shown: human IgG1 Fc (IgG1 backbone)
T14 sequence: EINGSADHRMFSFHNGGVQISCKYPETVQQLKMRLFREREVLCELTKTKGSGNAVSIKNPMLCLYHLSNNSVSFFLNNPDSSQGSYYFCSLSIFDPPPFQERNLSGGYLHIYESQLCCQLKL
Description: (§3) Cross-reactivity measurements were conducted using BLI technology with antibody panels being screened for binding to human, mouse, and cynomolgus ICOS-Fc fusions (homodimeric, bivalent forms).

[15] = biological target: T15, human ICOS-hFc (homodimeric, bivalent) (human, UniProt Q9Y6W8 21-141); assay: BLI (Octet RED96), full-length IgG vs homodimeric ICOS-Fc (avid); bivalent (homodimeric) hICOS, avid; not monomeric hICOS
T15 construct: also called hICOS-Fc; hICOS-hFc; not shown: human IgG1 Fc (IgG1 backbone)
T15 sequence: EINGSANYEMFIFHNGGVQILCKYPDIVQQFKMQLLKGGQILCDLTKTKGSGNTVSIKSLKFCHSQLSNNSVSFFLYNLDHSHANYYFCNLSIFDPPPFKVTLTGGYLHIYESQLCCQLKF
Description: (§4) Affinity measurements were conducted using Bio-Layer Interferometry (BLI) technology (ForteBio Octet® RED96). The monovalent affinities were generated with IgG versions of the antibodies with monovalent, heterodimeric forms of the ICOS receptor. The avid affinities were generated using full-length IgGs against homodimeric forms of the ICOS receptor.

[16] = biological target: T15, human ICOS-hFc (homodimeric, bivalent); assay: BLI (Octet RED96), full-length IgG vs homodimeric ICOS-Fc (avid)
Description: as §4

[17] = biological target: T1, monovalent, heterodimeric human ICOS-Fc; assay: BLI (Octet RED96), IgG vs monovalent heterodimeric ICOS-Fc
Description: as §4

[18] = biological target: T16, cynomolgus ICOS-Fc (homodimeric, bivalent) (cynomolgus monkey, UniProt Q9Y6W8 21-140 (human entry)); assay: BLI, bivalent binding to homodimeric ICOS-Fc
T16 construct: also called cynoICOS-Fc; cyno ICOS-Fc; not shown: human IgG1 Fc (IgG1 backbone)
T16 chain: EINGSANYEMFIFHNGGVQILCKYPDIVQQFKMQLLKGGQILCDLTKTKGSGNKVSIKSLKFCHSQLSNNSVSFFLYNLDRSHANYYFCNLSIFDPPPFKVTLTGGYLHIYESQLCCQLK
Description: as §3

[19] = biological target: T15, human ICOS-hFc (homodimeric, bivalent); assay: BLI, bivalent binding to homodimeric ICOS-Fc
Description: as §3

B1: 37A10S713 (antibody, V domains shown)
VH: EVQLVESGGGLVQPGGSLRLSCAASGFTFSDYWMDWVRQAPGKGLVWVSNIDEDGSITEYSPFVKGRFTISRDNAKNTLYLQMNSLRAEDTAVYYCTRWGRFGFDSWGQGTLVTVSS
VL: DIVMTQSPDSLAVSLGERATINCKSSQSLLSGSFNYLTWYQQKPGQPPKLLIFYASTRHTGVPDRFSGSGSGTDFTLTISSLQAEDVAVYYCHHHYNAPPTFGPGTKVDIK
notes: also called humanized antibody having the variable regions of 37A10S713; 37A10S713-hIgG1
Kd [1]: 1.5 nM
Kd [2]: 0.66 nM
Kd [3]: 7.2 nM

B2: 2M13 (antibody, V domains shown)
VH: EVQLQQSGAELVRPGAVVKLSCKASGFDIKDYYMHWVQQRPEQGLEWIGWIDPENGNAVYDPQFQGKASITADTSSNTAYLQLSSLTSEDTAVYYCASDYYGSKGYLDVWGAGTTVTVSS
VL: QIVLTQSPTIMSASPGEKVTITCSASSSVSYMHWFQQKPGTSPKLWIYSTSNLASGVPARFGGSRSGTSYSLTISRMEAEDAATYYCQQRSSYPFTFGSGTKLEIK
notes: Purified mouse monoclonal from a hybridoma; also called anti-ICOS antibody (2M13); anti-ICOS mAb 2M13
binding result [4]: binds

B3: 2M19 (antibody, V domains shown)
VH: EVQLQQSGAELVRSGASVKLSCTTSAFNIIDYYMHWVIQRPEQGLEWIAWIDPENGDPEYAPKFQDKATMTTDTSSNTAYLQLSSLTSEDTAVYYCTAWRGFAYWGQGTLVTVSA
VL: DVVMTQTPLSLPVSLGDQASISCRSSQSLVHSNGNTYLHWYLQKPGQSPKLLIYKVSNRFSGVPDRFSGSGSGTDFTLKISRVEAEDLGVYFCSQSIHVPPTFGGGTKLEIK
notes: Purified mouse monoclonal from a hybridoma; also called anti-ICOS mAb 2M19
binding result [4]: binds

B4: 35A9 (antibody, V domains shown)
VH: EVQLVESGGGLVKPGGSLKLSCAASGFTFSDYWMDWVRQAPGKGLEWVGNIDEDGSIAEYSPFVKGRFTISRDNVKNTLYLQMNSVKSEDTATYYCSRWGRFAFDSWGQGTLVTVSS
VL: DIVMTQSPSSLAVSAGDRVTINCKSSQSLLSGSFNYLTWYQQKTGQAPKLLIFYASTRHTGVPDRFMGSGSGTDFTLTINSFQTEDLGDYYCHHHYNAPPTFGPGTKLELR
notes: Armenian hamster monoclonal tested as IgG; also called hamster anti-ICOS 35A9
binding result [5]: binds
binding result [6]: no binding
binding result [7]: no binding
binding result [8]: no binding
binding result [9]: no binding
binding result [10]: no binding
binding result [11]: no binding
binding result [12]: no binding
binding result [13]: no binding
binding result [14]: binds
Kd [15]: < 0.001 nM
koff [16]: < 1e-07 s⁻¹
kon [16]: 625000 M⁻¹ s⁻¹
Kd [17]: 2.45 nM
koff [17]: 0.000438 s⁻¹
kon [17]: 178000 M⁻¹ s⁻¹
Kd [18]: < 0.001 nM
koff [18]: < 1e-07 s⁻¹
kon [18]: 740000 M⁻¹ s⁻¹
Kd [19]: < 0.001 nM
koff [19]: < 1e-07 s⁻¹
kon [19]: 1.01e+06 M⁻¹ s⁻¹
